# From doi:10.1101/2025.03.28.645892, “Plant-specific adaptations of the CDC48 unfoldase” (bioRxiv, 2025)
# T1: Arabidopsis thaliana NPL4 (Arabidopsis thaliana, UniProt O82264 1-413, Alexa-488 dye label in the MST experiments only)
# T1 construct: Nuclear protein localisation protein 4 (AtNPL4), Arabidopsis thaliana, locus AT2g47970; cDNA cloned into pGEX6P-1; also called AtNPL4; wild-type AtNPL4; not shown: GST, N-terminal, cleaved
# T1 sequence: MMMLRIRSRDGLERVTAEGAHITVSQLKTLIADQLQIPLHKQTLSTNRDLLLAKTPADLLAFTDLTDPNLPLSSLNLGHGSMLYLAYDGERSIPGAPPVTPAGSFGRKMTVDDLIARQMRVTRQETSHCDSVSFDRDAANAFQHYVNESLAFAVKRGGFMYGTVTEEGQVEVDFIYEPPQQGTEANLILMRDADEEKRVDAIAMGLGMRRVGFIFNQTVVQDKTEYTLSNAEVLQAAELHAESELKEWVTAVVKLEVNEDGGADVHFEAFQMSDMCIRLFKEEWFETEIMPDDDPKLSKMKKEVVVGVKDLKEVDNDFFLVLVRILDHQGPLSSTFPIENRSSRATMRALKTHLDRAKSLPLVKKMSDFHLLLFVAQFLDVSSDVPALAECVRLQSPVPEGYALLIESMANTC
# What was measured:
# [1] = target: T2, Arabidopsis thaliana CDC48A (Arabidopsis thaliana, UniProt P54609 1-809); assay: ITC; AtCDC48A in the cell (30 µM; 10 µM for AtNPL4B UBXL), partner 200 µM in the syringe; 2 mM AMPPNP; 50 mM Bis-Tris pH 6.5, 100 mM NaCl, 1 mM TCEP, 2 mM MgCl2; 25°C; conditions: both partners purified
# T2 construct: Cell division cycle protein 48 A (AtCDC48A), Arabidopsis thaliana, locus AT3g09840; recombinant full-length protein; Homo-hexamer; ADP-saturated or nucleotide-free in some experiments (told by the assay); also called AtCDC48A; AtCDC48; not shown: GST, N-terminal, cleaved
# [2] = target: T1, Arabidopsis thaliana NPL4; assay: MST; Alexa-488-labelled AtNPL4 (50 nM dye solution mixed 1:1), AtUFD1A or AtUFD1B titrated in 16 dilutions; pH 7.5 (50 mM Tris-HCl, 100 mM NaCl, 1 mM TCEP), Tween-20; conditions: both partners purified
# T2 sequence (P54609 whole entry): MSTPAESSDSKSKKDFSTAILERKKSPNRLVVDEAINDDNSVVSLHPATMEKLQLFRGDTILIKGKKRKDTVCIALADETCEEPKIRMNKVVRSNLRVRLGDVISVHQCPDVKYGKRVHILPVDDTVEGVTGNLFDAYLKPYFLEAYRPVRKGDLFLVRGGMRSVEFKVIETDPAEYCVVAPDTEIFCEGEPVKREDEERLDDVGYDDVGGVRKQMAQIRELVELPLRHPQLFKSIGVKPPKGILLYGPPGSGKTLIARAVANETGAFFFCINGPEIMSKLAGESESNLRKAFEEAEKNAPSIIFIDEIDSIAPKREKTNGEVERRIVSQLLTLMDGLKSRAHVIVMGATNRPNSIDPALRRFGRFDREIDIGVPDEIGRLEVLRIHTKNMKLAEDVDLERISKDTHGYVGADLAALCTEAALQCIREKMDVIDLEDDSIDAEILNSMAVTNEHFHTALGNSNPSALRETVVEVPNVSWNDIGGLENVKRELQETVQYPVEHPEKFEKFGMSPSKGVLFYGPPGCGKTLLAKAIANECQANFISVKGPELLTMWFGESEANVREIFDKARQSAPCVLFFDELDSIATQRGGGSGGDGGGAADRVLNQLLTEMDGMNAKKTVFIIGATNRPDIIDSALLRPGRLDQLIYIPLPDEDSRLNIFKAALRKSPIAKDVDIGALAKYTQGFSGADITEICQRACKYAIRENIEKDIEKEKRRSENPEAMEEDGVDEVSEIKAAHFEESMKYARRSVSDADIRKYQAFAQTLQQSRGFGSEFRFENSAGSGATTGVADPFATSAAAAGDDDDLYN
binder,measurement,setting,value
"AtNPL4B UBXL domain (domain or fragment, Arabidopsis thaliana, UniProt Q9LYC2 1-89, looked up, UBX-like (UBXL) domain of AtNPL4B, Arabidopsis thaliana, locus AT3g63000, residues 1-89; also called the isolated UBXL domain; not shown: GST, N-terminal, cleaved) MTMLRVRSRDGLERVSVDGPHITVSQLKTLIQDQLQIPIHNQTLSTNRNLLLAKSPSDFLAFTDMADPNLRISSLNLAHGSMVYLAYEG",stoichiometry N,[1],6 AtNPL4B_(UBXL) per hexamer
"AtNPL4B F105A (natural protein, Arabidopsis thaliana, UniProt Q9LYC2 1-413, looked up, AtNPL4B, second NPL4 variant of Arabidopsis thaliana, locus AT3g63000 (84% identical to AtNPL4); ordered from Twist Biosciences in pGEX6P-1; The wild-type AtNPL4B was not measured; also called the F105 mutant; not shown: GST, N-terminal, cleaved) MTMLRVRSRDGLERVSVDGPHITVSQLKTLIQDQLQIPIHNQTLSTNRNLLLAKSPSDFLAFTDMADPNLRISSLNLAHGSMVYLAYEGERTIRGGPAVTPAGSAGRKMTVEDLIARQMRVGRQEKAHCDSVSFDRDCANAFQHFVNESLAFAVKRGGFMYGNVSEDGQVEVNFIYEPPQQGMEDNLILMRDSEEEKRVDAIALGLGMRRVGFIFNQTVTQDKKEYTLSNVEVLLAAQLHAESELKEWVTAVVKLEINEDGGADVHFEPFQMSDMCVRLFKEGWFETEIGPEDDPKLSKLKKEVVVGVKDVKEVDNDFFLVLVKILDHQGPLSCTFPIENRNTQTTMRALKTHMERARSLPFVKRISDFHLLLFVAQFLDVSSDVPALAECVRLQSHVPEGYELLIDSMANTS",binding result,[1],binds
"Arabidopsis thaliana UFD1B (natural protein, UniProt Q9SJV0 1-340, looked up, Ubiquitin fusion degradation protein 1 paralogue B (AtUFD1B), Arabidopsis thaliana, locus AT2g21270; cDNA cloned into pGEX6P-1; also called AtUFD1B; AtUFD1; not shown: GST, N-terminal, cleaved) MVLRFCCHLLTYSVSLLPPITMFFDGYHYHGTTFEQSYRCYPASFIDKPQLESGDKIIMPPSALDRLASLHIDYPMLFELRNAGIERVTHCGVLEFIAEEGMIYMPYWMMQNLLLQEGDIVRVRNVTLPKGTYVKLQPHTTDFLDISNPKAILETALRNYSCLTSGDSIMVPYNNKKYFIDIVETKPANAISIIETDCEVDFAPPLDYKEPERPTAPSAAKGPAKAEEVVDEPEPKFNPFTGSGRRLDGRPLAYEPAPASSSKGKQPVVANGNGQSSVASSSEKATRAQGKLVFGANGNRAPKEAAPKVGAAKETKKEEQEKKDEPKFQAFSGKKYSLRG",Kd,[2],> 200 µM
